Experimental data taken from patent publication US20230272011A1 (AVACTA LIFE SCIENCES, published 2023).

Legend:
cynomolgus serum albumin [1] = target: T1, cynomolgus serum albumin (cynomolgus); assay: binding ELISA, coated albumin, pH 7.4
T1 construct: also called CSA; cyno serum albumin

rabbit serum albumin = rabbit serum albumin (rabbit, UniProt P49065 25-608); assay: binding ELISA, coated albumin, pH 7.4
equine serum albumin = equine serum albumin (equine, UniProt P35747 25-607); assay: binding ELISA, coated albumin, pH 7.4
equine serum albumin, sequence (P35747 25-607 limits assumed): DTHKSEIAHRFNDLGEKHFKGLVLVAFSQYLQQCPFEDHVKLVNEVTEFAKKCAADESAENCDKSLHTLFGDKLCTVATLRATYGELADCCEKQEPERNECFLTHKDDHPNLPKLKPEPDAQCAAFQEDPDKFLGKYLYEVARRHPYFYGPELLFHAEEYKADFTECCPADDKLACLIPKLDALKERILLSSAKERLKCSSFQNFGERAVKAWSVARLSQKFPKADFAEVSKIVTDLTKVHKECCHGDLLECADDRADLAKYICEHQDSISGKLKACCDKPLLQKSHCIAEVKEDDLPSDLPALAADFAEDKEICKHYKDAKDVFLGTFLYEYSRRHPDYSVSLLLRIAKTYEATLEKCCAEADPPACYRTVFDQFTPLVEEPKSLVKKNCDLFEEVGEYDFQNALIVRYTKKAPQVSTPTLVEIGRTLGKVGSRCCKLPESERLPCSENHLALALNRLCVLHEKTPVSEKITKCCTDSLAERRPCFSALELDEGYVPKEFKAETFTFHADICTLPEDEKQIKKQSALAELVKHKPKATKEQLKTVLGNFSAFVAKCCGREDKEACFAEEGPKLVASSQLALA

canine serum albumin = canine serum albumin (canine, UniProt P49822 25-608); assay: binding ELISA, coated albumin, pH 7.4
canine serum albumin, sequence (P49822 25-608 limits assumed): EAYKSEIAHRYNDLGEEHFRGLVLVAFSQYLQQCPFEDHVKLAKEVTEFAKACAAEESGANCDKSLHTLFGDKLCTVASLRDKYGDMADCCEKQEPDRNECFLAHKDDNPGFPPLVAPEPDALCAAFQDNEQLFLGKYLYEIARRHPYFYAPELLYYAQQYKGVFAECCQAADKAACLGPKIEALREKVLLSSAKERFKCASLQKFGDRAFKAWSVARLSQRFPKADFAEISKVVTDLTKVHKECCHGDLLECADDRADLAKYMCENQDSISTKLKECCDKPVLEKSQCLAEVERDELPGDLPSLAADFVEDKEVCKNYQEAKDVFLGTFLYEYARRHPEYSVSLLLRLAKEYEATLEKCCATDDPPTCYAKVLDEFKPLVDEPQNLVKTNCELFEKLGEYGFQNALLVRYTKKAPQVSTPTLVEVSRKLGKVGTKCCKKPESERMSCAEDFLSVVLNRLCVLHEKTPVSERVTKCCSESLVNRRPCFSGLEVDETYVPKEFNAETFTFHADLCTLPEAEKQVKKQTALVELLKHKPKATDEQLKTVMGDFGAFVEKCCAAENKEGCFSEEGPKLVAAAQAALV

porcine serum albumin = porcine serum albumin (porcine, UniProt P08835 25-607); assay: binding ELISA, coated albumin, pH 7.4
porcine serum albumin, sequence (P08835 25-607 limits assumed): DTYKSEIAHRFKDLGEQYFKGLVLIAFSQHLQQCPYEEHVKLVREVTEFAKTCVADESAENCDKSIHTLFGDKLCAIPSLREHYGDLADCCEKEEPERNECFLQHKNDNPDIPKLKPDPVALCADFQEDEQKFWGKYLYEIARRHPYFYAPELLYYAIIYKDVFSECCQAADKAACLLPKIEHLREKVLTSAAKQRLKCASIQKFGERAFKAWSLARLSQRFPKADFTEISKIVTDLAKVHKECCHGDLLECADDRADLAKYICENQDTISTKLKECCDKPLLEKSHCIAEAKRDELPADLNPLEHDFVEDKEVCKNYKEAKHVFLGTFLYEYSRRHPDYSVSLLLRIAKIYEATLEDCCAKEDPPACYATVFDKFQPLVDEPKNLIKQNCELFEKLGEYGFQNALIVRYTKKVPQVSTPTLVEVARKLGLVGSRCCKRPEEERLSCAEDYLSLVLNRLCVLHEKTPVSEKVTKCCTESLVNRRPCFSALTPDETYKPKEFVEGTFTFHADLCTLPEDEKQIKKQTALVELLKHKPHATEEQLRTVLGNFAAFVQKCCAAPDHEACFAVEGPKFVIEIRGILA

rat serum albumin = rat serum albumin (rat, UniProt P02770 25-608); assay: binding ELISA, coated albumin, pH 7.4
rat serum albumin, sequence (P02770 25-608 limits assumed): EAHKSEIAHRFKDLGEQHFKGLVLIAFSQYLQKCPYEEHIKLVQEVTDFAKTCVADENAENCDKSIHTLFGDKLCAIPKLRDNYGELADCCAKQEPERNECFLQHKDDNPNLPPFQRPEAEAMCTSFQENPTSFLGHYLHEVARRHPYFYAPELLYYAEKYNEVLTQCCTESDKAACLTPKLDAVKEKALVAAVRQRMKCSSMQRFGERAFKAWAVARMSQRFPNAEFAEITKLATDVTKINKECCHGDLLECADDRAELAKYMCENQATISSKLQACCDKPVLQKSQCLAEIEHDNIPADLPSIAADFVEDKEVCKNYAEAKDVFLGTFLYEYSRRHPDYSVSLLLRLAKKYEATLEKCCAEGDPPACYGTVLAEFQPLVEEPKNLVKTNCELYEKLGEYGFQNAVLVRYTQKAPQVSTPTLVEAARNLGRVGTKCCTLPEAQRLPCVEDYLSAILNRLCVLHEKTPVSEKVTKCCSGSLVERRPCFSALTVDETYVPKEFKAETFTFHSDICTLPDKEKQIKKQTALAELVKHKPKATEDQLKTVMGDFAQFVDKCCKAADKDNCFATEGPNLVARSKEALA

human serum albumin [2] = target: T2, human serum albumin (human, UniProt P02768 25-609); assay: binding ELISA, coated albumin, pH 7.4
T2 construct: mature; Bought protein; biotinylated in the Octet and HTRF assays; also called HSA; HuSA

mouse serum albumin [3] = target: T3, mouse serum albumin (mouse, UniProt P07724 25-608); assay: binding ELISA, coated albumin, pH 7.4
T3 construct: also called MSA
T3 sequence (P07724 25-608 limits assumed): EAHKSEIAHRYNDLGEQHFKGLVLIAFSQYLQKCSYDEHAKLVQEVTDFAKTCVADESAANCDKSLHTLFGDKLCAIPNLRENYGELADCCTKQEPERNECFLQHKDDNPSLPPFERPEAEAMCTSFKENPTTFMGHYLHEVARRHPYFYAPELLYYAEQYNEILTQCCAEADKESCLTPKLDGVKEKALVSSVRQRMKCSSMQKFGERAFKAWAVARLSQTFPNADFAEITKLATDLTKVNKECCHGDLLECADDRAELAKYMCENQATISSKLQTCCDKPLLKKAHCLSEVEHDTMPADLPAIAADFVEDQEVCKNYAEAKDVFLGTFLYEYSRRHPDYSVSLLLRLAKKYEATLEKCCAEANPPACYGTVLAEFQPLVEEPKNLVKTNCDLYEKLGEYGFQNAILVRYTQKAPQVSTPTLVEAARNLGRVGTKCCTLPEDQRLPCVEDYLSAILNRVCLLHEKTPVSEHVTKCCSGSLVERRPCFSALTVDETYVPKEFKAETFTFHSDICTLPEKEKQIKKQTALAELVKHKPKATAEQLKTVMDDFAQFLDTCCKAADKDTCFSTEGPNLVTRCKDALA

human serum albumin [4] = target: T2, human serum albumin; assay: binding ELISA on coated HSA, pH 7.4
Description: After saturation with 5% PBS Casein pH 7.5, plates were washed and a dilution of AFFIMER® polypeptides or controls were incubated for 90 minutes. Plates were then washed, and a biotinylated polyclonal antibody anti-cystatin A (R&D Systems) was added for 1 hour. Plates were washed and AFFIMER® polypeptides were detected using streptavidin-HRP. After a last washing step, TMB was added for the development of the experiment and the plates were read at 450 nm.

cynomolgus serum albumin [5] = target: T1, cynomolgus serum albumin; assay: BLI (Octet), biotinylated albumin on SA sensor, pH 6.0
Summary of the method: (§1)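 Affinity is measured against albumin captured at 1 μg/ml on streptavidin tips, in PBS-T (0.01% Tween 20) plus 1% casein at the stated pH, at 25° C.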

human serum albumin [6] = target: T2, human serum albumin; assay: as above
Summary of the method: as §1

mouse serum albumin [7] = target: T3, mouse serum albumin; assay: as above
Summary of the method: as §1

cynomolgus serum albumin [8] = target: T1, cynomolgus serum albumin; assay: BLI (Octet), biotinylated albumin on SA sensor, pH 7.4
Summary of the method: as §1

human serum albumin [9] = target: T2, human serum albumin; assay: as above
Summary of the method: as §1

mouse serum albumin [10] = target: T3, mouse serum albumin; assay: as above
Summary of the method: as §1

human serum albumin [11] = target: T2, human serum albumin; assay: SPR (Biacore) binding response to HSA at pH 7.4, Affimer at 50 nM
Excerpt: Final clones were sequence-verified, produced from E. coli, and affinity purified as described in Example 3.

cynomolgus serum albumin [12] = target: T1, cynomolgus serum albumin; assay: SPR (Biacore T200), albumin amine-coupled to CM5, Affimer analyte, pH 7.4
Description: (§2) Affinities for mouse, human, and cynomolgus serum were also measured at pH 7.4 for four (4) AFFIMER® binders using surface plasmon resonance (SPR) (FIG. 5, Table 5). […] A concentration titration of AFFIMER® monomers was run as analyte at a flow rate of 30 μl/min or 60 μl/min. Fc2-1, Fc3-1 and Fc4-1 kinetic data was blank subtracted and fit to a 1:1 Langmuir binding model (BIAcore Evalution software; GE) to calculate KD values.

human serum albumin [13] = target: T2, human serum albumin; assay: as above
Description: as §2

mouse serum albumin [14] = target: T3, mouse serum albumin; assay: as above
Description: as §2

cynomolgus serum albumin [15] = target: T1, cynomolgus serum albumin; assay: Octet biolayer interferometry, biotinylated albumin on SA sensors, pH 7.4
Summary of the method: as §1

human serum albumin [16] = target: T2, human serum albumin; assay: as above
Summary of the method: as §1

mouse serum albumin [17] = target: T3, mouse serum albumin; assay: as above
Summary of the method: as §1

T1 sequence (A2V9Z4 25-608): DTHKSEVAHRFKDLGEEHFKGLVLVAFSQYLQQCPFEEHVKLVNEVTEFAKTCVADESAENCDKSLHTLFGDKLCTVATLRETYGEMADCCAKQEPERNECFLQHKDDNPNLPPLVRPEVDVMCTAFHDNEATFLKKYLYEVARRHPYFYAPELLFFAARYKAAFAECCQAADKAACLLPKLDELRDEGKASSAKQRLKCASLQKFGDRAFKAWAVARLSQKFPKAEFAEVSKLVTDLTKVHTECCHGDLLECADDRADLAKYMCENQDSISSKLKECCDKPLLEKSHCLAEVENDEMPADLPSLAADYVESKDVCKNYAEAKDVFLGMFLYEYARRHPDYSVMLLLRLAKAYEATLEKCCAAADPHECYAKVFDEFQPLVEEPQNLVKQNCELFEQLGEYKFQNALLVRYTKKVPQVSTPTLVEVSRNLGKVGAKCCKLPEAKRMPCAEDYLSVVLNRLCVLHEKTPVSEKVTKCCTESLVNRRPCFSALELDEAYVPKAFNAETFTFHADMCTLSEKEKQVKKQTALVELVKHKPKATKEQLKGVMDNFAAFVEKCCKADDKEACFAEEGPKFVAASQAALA
rabbit serum albumin, sequence (P49065 25-608 limits assumed): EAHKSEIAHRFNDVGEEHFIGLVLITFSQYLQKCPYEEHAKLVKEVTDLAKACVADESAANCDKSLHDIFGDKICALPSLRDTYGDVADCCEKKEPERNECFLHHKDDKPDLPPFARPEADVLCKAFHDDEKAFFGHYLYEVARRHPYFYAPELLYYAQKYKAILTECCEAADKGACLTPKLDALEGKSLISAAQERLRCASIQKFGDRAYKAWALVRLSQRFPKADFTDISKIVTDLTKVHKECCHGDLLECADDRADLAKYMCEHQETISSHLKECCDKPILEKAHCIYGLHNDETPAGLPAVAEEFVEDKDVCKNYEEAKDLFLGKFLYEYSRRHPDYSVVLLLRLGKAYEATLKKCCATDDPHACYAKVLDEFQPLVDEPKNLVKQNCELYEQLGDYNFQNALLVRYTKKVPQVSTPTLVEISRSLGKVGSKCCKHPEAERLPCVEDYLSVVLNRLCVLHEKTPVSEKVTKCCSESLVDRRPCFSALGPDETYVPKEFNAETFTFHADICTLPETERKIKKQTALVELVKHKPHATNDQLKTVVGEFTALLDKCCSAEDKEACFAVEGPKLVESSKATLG

EC50 (cynomolgus serum albumin [1]): 12.8 nM | EC50 (rabbit serum albumin): 381 nM | EC50 (equine serum albumin): 150 nM | EC50 (canine serum albumin): 21.5 nM | EC50 (porcine serum albumin): 51.7 nM | EC50 (rat serum albumin): 4.18 nM | EC50 (human serum albumin [2]): 0.05 nM | EC50 (mouse serum albumin [3]): 42.5 nM | EC50 (human serum albumin [4]): 0.04 nM | Kd (cynomolgus serum albumin [5]): 105 nM | Kd (human serum albumin [6]): 7.1 nM | Kd (mouse serum albumin [7]): 95.2 nM | Kd (cynomolgus serum albumin [8]): 71.5 nM | Kd (human serum albumin [9]): 5.2 nM | Kd (mouse serum albumin [10]): 47.9 nM | binding response (human serum albumin [11]): 36.8 | Kd (cynomolgus serum albumin [12]): 112 nM | koff (cynomolgus serum albumin [12]): 0.0546 s⁻¹ | kon (cynomolgus serum albumin [12]): 488000 M⁻¹ s⁻¹ | Kd (human serum albumin [13]): 2.59 nM | koff (human serum albumin [13]): 0.0037 s⁻¹ | kon (human serum albumin [13]): 1.43e+06 M⁻¹ s⁻¹ | Kd (mouse serum albumin [14]): 67.8 nM | koff (mouse serum albumin [14]): 0.139 s⁻¹ | kon (mouse serum albumin [14]): 2.04e+06 M⁻¹ s⁻¹ | koff (cynomolgus serum albumin [15]): 0.0177 s⁻¹ | kon (cynomolgus serum albumin [15]): 248000 M⁻¹ s⁻¹ | koff (human serum albumin [16]): 0.00198 s⁻¹ | kon (human serum albumin [16]): 379000 M⁻¹ s⁻¹ | koff (mouse serum albumin [17]): 0.0318 s⁻¹ | kon (mouse serum albumin [17]): 663000 M⁻¹ s⁻¹
B1: HSA-41 (designed binder)
chain: MIPRGLSEAKPATPEIQEIVDKVKPQLEEKTNETYGKLEAVQYKTQVLANFFQRRWPGSTNYYIKVRAGDNKYMHLKVFNGPWKFRNTDRGADRVLTGYQVDKNKDDELTGFHHHHHH
notes: also called HSA-41 parent; HSA-41 AH parent
